Measured values reported in article PMC3750173, “Ferredoxin Competes with Bacterial Frataxin in Binding to the Desulfurase IscS*^([image sbox.jpg])” (The Journal of Biological Chemistry, 2013).

Experiments:
[1] = biological target: holo-Fdx (cluster-loaded E. coli ferredoxin) (E. coli) (UniProt P0A9R4); test: SAXS; solutions of 2.5-5.0 mg/ml at 10 °C; IscS alone and holo-Fdx·IscS complex
[2] = biological target: holo-Fdx (cluster-loaded E. coli ferredoxin) (E. coli) (UniProt P0A9R4); test: BLI; biotinylated holo-Fdx on streptavidin biosensors, IscS 0-60 μM; 20 mM HEPES pH 7.5, 150 mM NaCl, 2 mM TCEP, 0.5 mg/ml BSA, 25 °C; Kd from the amplitude at equilibrium
[3] = biological target: T1, IscS (E. coli desulfurase), wild type (E. coli, UniProt P0A6B7 1-404); test: NMR titration; competition: holo-Fdx·IscS sample (with IscU added before) titrated with CyaY up to 3 molar excess over holo-Fdx; 20 mM Tris, 150 mM NaCl, 20 mM TCEP, pH 8, 298 K; conditions: both partners purified
T1 construct: cysteine desulfurase IscS, E. coli; construct pET-11 IscS (EMBL-Hamburg); Dimer by SAXS; also called desulfurase IscS

[4] = biological target: T2, IscS_D346K/E347K (E. coli, UniProt P0A6B7 1-404, D346K | E347K); test: NMR titration; 15N-SOFAST HMQC of [15N]- or [15N/2H]Fdx or Fdx mutants titrated with unlabelled IscS or IscS mutants; 20 mM Tris, 150 mM NaCl, 20 mM TCEP, pH 8, 298 K; conditions: both partners purified
T2 construct: cysteine desulfurase IscS, E. coli; site-directed mutant of pET-11 IscS

[5] = biological target: T3, IscS_R112E/R116E (E. coli, UniProt P0A6B7 1-404, R112E | R116E); test: as above; conditions: both partners purified
T3 construct: cysteine desulfurase IscS, E. coli; site-directed mutant of pET-11 IscS; designed after the first round of docking

[6] = biological target: T4, IscS_I314E/M315E (E. coli, UniProt P0A6B7 1-404, I314E | M315E); test: as above; conditions: both partners purified
T4 construct: cysteine desulfurase IscS, E. coli; site-directed mutant of pET-11 IscS

[7] = biological target: T1, IscS (E. coli desulfurase), wild type; test: as above; conditions: both partners purified

“IscS (E. coli desulfurase), wild type (from UniProt P0A6B7 1-404) (enzyme)” gave a percent of free components [1] of 10%, a percent of the complex (OLIGOMER fit) [1] of 80% and a stoichiometry N (IscS:Fdx (2:2)) [1] of 1. For the same molecule, the Kd [2] was 1500 nM.

B1: CyaY (bacterial ortholog of frataxin) (natural protein, E. coli, UniProt P27838 1-106, looked up)
chain: MNDSEFHRLADQLWLTIEERLDDWDGDSDIDCEINGGVLTITFENGSKIIINRQEPLHQVWLATKQGGYHFDLKGDEWICDRSGETFWDLLEQAATQQAGETVSFR
notes: CyaY, the bacterial ortholog of frataxin, E. coli; also called bacterial frataxin
B1: binds [3].

B2: holo-Fdx (cluster-loaded E. coli ferredoxin) (natural protein)
chain: MPKIVILPHQDLCPDGAVLEANSGETILDAALRNGIEIEHACEKSCACTTCHCIVREGFDSLPESSEQEDDMLDKAWGLEPESRLSCQARVTDEDLVVEIPRYTINHAREH
modifications: [2Fe-2S] cluster bound (holo); biotinylated for BLI (site not stated); 15N or 15N/2H labelled for NMR
notes: ferredoxin (Fdx) of the isc operon, E. coli; fdx amplified from E. coli genomic DNA into a modified pET-24 vector; The same construct was used 15N- or 15N/2H-labelled in NMR and biotinylated on streptavidin biosensors in BLI; residues left after TEV cleavage and the NcoI site are not described; also called [15N]holo-Fdx; [15N/2H]holo-Fdx; source: E. coli, purified (nickel-nitrilotriacetic …)
B2: binds [4]; binds [5]; binds [6].

B3: holo-Fdx_D11K (natural protein, E. coli)
chain: MPKIVILPHQKLCPDGAVLEANSGETILDAALRNGIEIEHACEKSCACTTCHCIVREGFDSLPESSEQEDDMLDKAWGLEPESRLSCQARVTDEDLVVEIPRYTINHAREH
modifications: [2Fe-2S] cluster bound (holo); 15N labelled
notes: ferredoxin (Fdx) of the isc operon, E. coli; mutant of the pET-24 construct; source: E. coli, purified (nickel-nitrilotriacetic acid-agarose, TEV cleavage, Superdex G75, MonoQ); not shown: GST, N-terminal, cleaved; His tag, N-terminal, cleaved
B3: binds [7].

B4: holo-Fdx_E57K/D60K (natural protein, E. coli)
chain: MPKIVILPHQDLCPDGAVLEANSGETILDAALRNGIEIEHACEKSCACTTCHCIVRKGFKSLPESSEQEDDMLDKAWGLEPESRLSCQARVTDEDLVVEIPRYTINHAREH
modifications: [2Fe-2S] cluster bound (holo); 15N labelled
notes: as for B3
B4: binds [7].
